The chains are these.
B1: huB1G5-ScFv-2VHH (CD3 arm) (antibody)
chain: EVQLVESGGGLVQPGGSLKLSCAASGFTFSTYAMNWVRQAPGKGLEWVGRIRSKYNNYATYYADSVKDRFTISRDDSKNTLYLQMNSLKTEDTAVYYCTRHGNFGNSYVSWFAYWGQGTTVTVSSGGGGSGGGGSGGGGSQAVVTQEPSLTVSPGGTVTLTCRSSTGAVTTSNYANWVQQKPGQAPRGLIGGTNKRAPGVPARFSGSLLGGKAALTLSGAQPEDEAEYFCALWYSNLWVFGGGTKLTVLG
B2: huB1G5-CD3Fab (CD3 arm) (antibody, V domains shown)
VH: EVQLVESGGGLVQPGGSLKLSCAASGFTFSTYAMNWVRQAPGKGLEWVGRIRSKYNNYATYYADSVKDRFTISRDDSKNTLYLQMNSLKTEDTAVYYCTRHGNFGNSYVSWFAYWGQGTTVTVSS
VL: QAVVTQEPSLTVSPGGTVTLTCRSSTGAVTTSNYANWVQQKPGQAPRGLIGGTNKRAPGVPARFSGSLLGGKAALTLSGAQPEDEAEYFCALWYSNLWVFGGGTKLTVL
B3: huB1G5-CD3-2VHH (CD3 arm) (antibody, V domains shown)
VH: EVQLVESGGGLVQPGGSLKLSCAASGFTFSTYAMNWVRQAPGKGLEWVGRIRSKYNNYATYYADSVKDRFTISRDDSKNTLYLQMNSLKTEDTAVYYCTRHGNFGNSYVSWFAYWGQGTTVTVSS
VL: QAVVTQEPSLTVSPGGTVTLTCRSSTGAVTTSNYANWVQQKPGQAPRGLIGGTNKRAPGVPARFSGSLLGGKAALTLSGAQPEDEAEYFCALWYSNLWVFGGGTKLTVL
B4: huB1G5-ScFv-2VHH (CD3 arm) (antibody)
chain: EVQLVESGGGLVQPGGSLKLSCAASGFTFSTYAMNWVRQAPGKGLEWVGRIRSKYNNYATYYADSVKDRFTISRDDSKNTLYLQMNSLKTEDTAVYYCTRHGNFGNSYVSWFAYWGQGTTVTVSSGGGGSGGGGSGGGGSQAVVTQEPSLTVSPGGTVTLTCRSSTGAVTTSNYANWVQQKPGQAPRGLIGGTNKRAPGVPARFSGSLLGGKAALTLSGAQPEDEAEYFCALWYSNLWVFGGGTKLTVLG
modifications: ACRO CDD-C52W4
B5: huB1G5-CD3-2VHH (CD3 arm) (antibody, V domains shown)
VH: EVQLVESGGGLVQPGGSLKLSCAASGFTFSTYAMNWVRQAPGKGLEWVGRIRSKYNNYATYYADSVKDRFTISRDDSKNTLYLQMNSLKTEDTAVYYCTRHGNFGNSYVSWFAYWGQGTTVTVSS
VL: QAVVTQEPSLTVSPGGTVTLTCRSSTGAVTTSNYANWVQQKPGQAPRGLIGGTNKRAPGVPARFSGSLLGGKAALTLSGAQPEDEAEYFCALWYSNLWVFGGGTKLTVL
modifications: ACRO CDD-C52W4
B6: huB1G5-CD3Fab (CD3 arm) (antibody, V domains shown)
VH: EVQLVESGGGLVQPGGSLKLSCAASGFTFSTYAMNWVRQAPGKGLEWVGRIRSKYNNYATYYADSVKDRFTISRDDSKNTLYLQMNSLKTEDTAVYYCTRHGNFGNSYVSWFAYWGQGTTVTVSS
VL: QAVVTQEPSLTVSPGGTVTLTCRSSTGAVTTSNYANWVQQKPGQAPRGLIGGTNKRAPGVPARFSGSLLGGKAALTLSGAQPEDEAEYFCALWYSNLWVFGGGTKLTVL
modifications: ACRO CDD-C52W4

One assay addresses T1, human CD3 protein (human).
T1 chain: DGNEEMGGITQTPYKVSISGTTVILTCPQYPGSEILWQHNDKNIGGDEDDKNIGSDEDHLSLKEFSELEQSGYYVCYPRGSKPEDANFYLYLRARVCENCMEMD
As to the kind of experiment: BLI. On the technique in general: Biolayer interferometry detects binding as a change in optical thickness at a sensor tip.
In general, Kd refers to a measure of binding affinity in units of concentration. The molecule B1 gave a Kd of 35.7 nM.

B2 gave a Kd of 26.3 nM.

In turn, B3 returned a Kd of 22.6 nM.

In the next assay the target is T2, cynomolgus monkey CD3 protein (cynomolgus monkey).
T2 chain: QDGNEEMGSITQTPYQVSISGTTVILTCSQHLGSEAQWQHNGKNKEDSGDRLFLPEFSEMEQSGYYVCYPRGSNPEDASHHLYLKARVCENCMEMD
Put plainly: BLI.
Molecule B4 yielded a Kd of 28.2 nM.

For the molecule B5, binding was put at a Kd of 6.92 nM.

In turn, B6 gave a Kd of 6.59 nM.

These data come from US20260327304 (published 2026).
